Experimental data: the supplement of paper PMC9112550, “Optimization of the antimicrobial peptide Bac7 by deep mutational scanning” (BMC Biology, 2022)

Tested on: Escherichia coli TOP10
Experiment: shrunken log2 fold change of peptide-encoding DNA abundance (4.5 h post-induction vs induction); higher = less antimicrobial activity (less host growth inhibition)
Settings: time post-induction: 4.5 h; library: site-saturation at positions 5, 18, 19, 20
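Further: peptides expressed intracellularly from a pBAD plasmid library in pooled LB shake-flask culture, induced with 0.3% L-arabinose, DNA abundance read by NGS, three biological replicates, DESeq2 with apeglm shrinkage.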

| Sequence | shrunken log2 fold change |
| --- | --- |
| RRIRDRPPRLPRPRPRPNHSPRP | -0.33 |
| RRIRHRPPRLPRPRPRPQPEPRP | -0.0374 |
| RRIRKRPPRLPRPRPRPVQTPRP | 0.914 |
| RRIRGRPPRLPRPRPRPWNQPRP | -0.139 |
| RRIRYRPPRLPRPRPRPWSWPRP | 0.0225 |
| RRIRYRPPRLPRPRPRPRHNPRP | -0.477 |
| RRIRYRPPRLPRPRPRPNCTPRP | -0.126 |
| RRIRPRPPRLPRPRPRPIQHPRP | -0.053 |
| RRIRVRPPRLPRPRPRPIQHPRP | -0.415 |
| RRIRMRPPRLPRPRPRPRSGPRP | 0.815 |
| RRIRTRPPRLPRPRPRPHMCPRP | -0.195 |
| RRIRVRPPRLPRPRPRPFMHPRP | -0.156 |
| RRIRCRPPRLPRPRPRPNEIPRP | -0.0995 |
| RRIRNRPPRLPRPRPRPQYEPRP | -0.117 |
| RRIRNRPPRLPRPRPRPWDQPRP | 0.0603 |
| RRIRDRPPRLPRPRPRPTPKPRP | 0.346 |
| RRIRVRPPRLPRPRPRPRTDPRP | -0.191 |
| RRIRGRPPRLPRPRPRPYELPRP | -0.036 |
| RRIRARPPRLPRPRPRPAQWPRP | 0.252 |
| RRIRARPPRLPRPRPRPIRQPRP | -0.00194 |
| RRIRDRPPRLPRPRPRPLHHPRP | -0.314 |
| RRIRLRPPRLPRPRPRPKVKPRP | -0.0219 |
| RRIRARPPRLPRPRPRPVVTPRP | 0.254 |
| RRIRNRPPRLPRPRPRPNHEPRP | -0.00884 |
| RRIRIRPPRLPRPRPRPSVLPRP | -0.189 |

| Sequence | shrunken log2 fold change |
| --- | --- |
| RRIRHRPPRLPRPRPRPTQMPRP | 0.222 |
| RRIRPRPPRLPRPRPRPIQYPRP | -0.642 |
| RRIRNRPPRLPRPRPRPCVCPRP | -0.00201 |
| RRIRSRPPRLPRPRPRPDATPRP | 0.816 |
| RRIRCRPPRLPRPRPRPNQDPRP | -0.348 |
| RRIRIRPPRLPRPRPRPEILPRP | -0.0902 |
| RRIRLRPPRLPRPRPRPGMYPRP | -0.115 |
| RRIRHRPPRLPRPRPRPMSKPRP | -0.203 |
| RRIRLRPPRLPRPRPRPSCMPRP | -0.362 |
| RRIRRRPPRLPRPRPRPIMQPRP | -0.0408 |
| RRIRGRPPRLPRPRPRPNCMPRP | 0.196 |
| RRIRYRPPRLPRPRPRPSDCPRP | -0.0875 |
| RRIRDRPPRLPRPRPRPVESPRP | -0.373 |
| RRIRMRPPRLPRPRPRPWDCPRP | 0.00902 |
| RRIRLRPPRLPRPRPRPVFHPRP | -0.143 |
| RRIRRRPPRLPRPRPRPHSYPRP | -0.187 |
| RRIRVRPPRLPRPRPRPQVAPRP | -0.136 |
| RRIRSRPPRLPRPRPRPWTSPRP | 0.0101 |
| RRIRMRPPRLPRPRPRPTSAPRP | 0.74 |
| RRIRIRPPRLPRPRPRPVCNPRP | -0.52 |
| RRIRVRPPRLPRPRPRPRHGPRP | 0.176 |
| RRIRSRPPRLPRPRPRPMAVPRP | -0.000652 |
| RRIRMRPPRLPRPRPRPTATPRP | 3.59 |
| RRIRHRPPRLPRPRPRPRQQPRP | 0.283 |
| RRIRERPPRLPRPRPRPSMTPRP | 0.0627 |

| Sequence | shrunken log2 fold change |
| --- | --- |
| RRIRIRPPRLPRPRPRPVKRPRP | -0.09 |
| RRIRIRPPRLPRPRPRPFTWPRP | -0.924 |
| RRIRHRPPRLPRPRPRPCSLPRP | -0.115 |
| RRIRKRPPRLPRPRPRPNIHPRP | -0.112 |
| RRIRQRPPRLPRPRPRPKSYPRP | -0.0861 |
| RRIRFRPPRLPRPRPRPIGMPRP | -0.0266 |
| RRIRKRPPRLPRPRPRPQCEPRP | -0.0553 |
| RRIRGRPPRLPRPRPRPLGQPRP | 0.756 |
| RRIRYRPPRLPRPRPRPSLAPRP | 0.0395 |
| RRIRRRPPRLPRPRPRPTTKPRP | 0.0527 |
| RRIRLRPPRLPRPRPRPFWEPRP | 0.117 |
| RRIRGRPPRLPRPRPRPKHWPRP | 0.646 |
| RRIRVRPPRLPRPRPRPQTDPRP | -0.27 |
| RRIRKRPPRLPRPRPRPYYSPRP | -0.373 |
| RRIRPRPPRLPRPRPRPYVVPRP | -0.307 |
| RRIRKRPPRLPRPRPRPFMLPRP | -0.0682 |
| RRIRLRPPRLPRPRPRPKSLPRP | -0.467 |
| RRIRHRPPRLPRPRPRPHERPRP | -0.00134 |
| RRIRQRPPRLPRPRPRPPMCPRP | -0.213 |
| RRIRHRPPRLPRPRPRPGQSPRP | -0.0176 |
| RRIRNRPPRLPRPRPRPDHMPRP | -0.00141 |
| RRIRRRPPRLPRPRPRPSEAPRP | -0.0295 |
| RRIRRRPPRLPRPRPRPFVLPRP | -0.0834 |
| RRIRRRPPRLPRPRPRPDQNPRP | 0.327 |
| RRIRKRPPRLPRPRPRPQSGPRP | 0.149 |

| Sequence | shrunken log2 fold change |
| --- | --- |
| RRIRDRPPRLPRPRPRPCRGPRP | -0.138 |
| RRIRARPPRLPRPRPRPNWAPRP | 0.27 |
| RRIRQRPPRLPRPRPRPNRCPRP | -0.0278 |
| RRIRGRPPRLPRPRPRPLTTPRP | 1.82 |
| RRIRNRPPRLPRPRPRPSTRPRP | 0.326 |
| RRIRQRPPRLPRPRPRPNAQPRP | 0.0116 |
| RRIRMRPPRLPRPRPRPRIWPRP | 0.726 |
| RRIRARPPRLPRPRPRPDDWPRP | 1.12 |
| RRIRNRPPRLPRPRPRPWCIPRP | -0.573 |
| RRIRKRPPRLPRPRPRPRNSPRP | -0.0385 |
| RRIRTRPPRLPRPRPRPDENPRP | 0.0019 |
| RRIRIRPPRLPRPRPRPMSIPRP | -0.0563 |
| RRIRARPPRLPRPRPRPYNPPRP | -0.388 |
| RRIRTRPPRLPRPRPRPEKQPRP | -0.0379 |
| RRIRTRPPRLPRPRPRPFTDPRP | 0.00943 |
| RRIRLRPPRLPRPRPRPMNKPRP | -0.504 |
| RRIRFRPPRLPRPRPRPCATPRP | 0.0672 |
| RRIRIRPPRLPRPRPRPEAWPRP | 0.033 |
| RRIRKRPPRLPRPRPRPWGKPRP | 0.0646 |
| RRIRIRPPRLPRPRPRPLYKPRP | -0.622 |
| RRIRRRPPRLPRPRPRPTPPPRP | 0.845 |
| RRIRQRPPRLPRPRPRPCIGPRP | -0.204 |
| RRIRIRPPRLPRPRPRPLMIPRP | -0.807 |
| RRIRARPPRLPRPRPRPHWGPRP | 0.119 |
| RRIRERPPRLPRPRPRPDPEPRP | -0.159 |

| Sequence | shrunken log2 fold change |
| --- | --- |
| RRIRVRPPRLPRPRPRPCAMPRP | -0.16 |
| RRIRVRPPRLPRPRPRPKVSPRP | -0.0522 |
| RRIRTRPPRLPRPRPRPAHNPRP | -0.215 |
| RRIRGRPPRLPRPRPRPCSNPRP | 0.275 |
| RRIRWRPPRLPRPRPRPASEPRP | 0.329 |
| RRIRRRPPRLPRPRPRPQCDPRP | 0.333 |
| RRIRHRPPRLPRPRPRPSRFPRP | 0.0223 |
| RRIRCRPPRLPRPRPRPYCRPRP | -0.0628 |
| RRIRFRPPRLPRPRPRPKKGPRP | 0.106 |
| RRIRSRPPRLPRPRPRPENNPRP | -0.449 |
| RRIRGRPPRLPRPRPRPKNDPRP | 0.698 |
| RRIRRRPPRLPRPRPRPQHPPRP | 0.526 |
| RRIRVRPPRLPRPRPRPHSGPRP | -0.022 |
| RRIRPRPPRLPRPRPRPVITPRP | -0.123 |
| RRIRPRPPRLPRPRPRPYIQPRP | -0.375 |
| RRIRARPPRLPRPRPRPFMGPRP | -0.255 |
| RRIRPRPPRLPRPRPRPDVWPRP | 0.266 |
| RRIRVRPPRLPRPRPRPEKLPRP | 0.0465 |
| RRIRNRPPRLPRPRPRPYDEPRP | -0.0237 |
| RRIRLRPPRLPRPRPRPMDNPRP | -1.1 |
| RRIRNRPPRLPRPRPRPVQMPRP | 0.0259 |
| RRIRCRPPRLPRPRPRPSCTPRP | -0.287 |
| RRIRPRPPRLPRPRPRPNIWPRP | -0.0307 |
| RRIRYRPPRLPRPRPRPCDVPRP | -0.739 |
| RRIRWRPPRLPRPRPRPNGLPRP | 0.145 |

| Sequence | shrunken log2 fold change |
| --- | --- |
| RRIRARPPRLPRPRPRPLGAPRP | 0.726 |
| RRIRCRPPRLPRPRPRPGPTPRP | 0.848 |
| RRIRNRPPRLPRPRPRPSPPPRP | -0.0562 |
| RRIRYRPPRLPRPRPRPAAHPRP | -0.134 |
| RRIRERPPRLPRPRPRPFCHPRP | -0.0629 |
| RRIRMRPPRLPRPRPRPWTAPRP | -0.0195 |
| RRIRDRPPRLPRPRPRPQDQPRP | -0.144 |
| RRIRARPPRLPRPRPRPCHVPRP | -0.0999 |
| RRIRLRPPRLPRPRPRPWWSPRP | -0.0019 |
| RRIRERPPRLPRPRPRPWCKPRP | 0.00398 |
| RRIRNRPPRLPRPRPRPSFFPRP | -0.367 |
| RRIRQRPPRLPRPRPRPQEDPRP | -0.0264 |
| RRIRDRPPRLPRPRPRPECCPRP | 0.828 |
| RRIRPRPPRLPRPRPRPLNAPRP | -0.0965 |
| RRIRCRPPRLPRPRPRPKHIPRP | -0.443 |
| RRIRIRPPRLPRPRPRPEYMPRP | -1.14 |
| RRIRPRPPRLPRPRPRPSFKPRP | -0.123 |
| RRIRKRPPRLPRPRPRPWMMPRP | 0.211 |
| RRIRSRPPRLPRPRPRPCSEPRP | -0.228 |
| RRIRLRPPRLPRPRPRPKVEPRP | -0.0879 |
| RRIRRRPPRLPRPRPRPWYWPRP | -0.039 |
| RRIRPRPPRLPRPRPRPLEKPRP | 0.261 |
| RRIRGRPPRLPRPRPRPACSPRP | 0.773 |
| RRIRLRPPRLPRPRPRPELYPRP | -0.0383 |
| RRIRFRPPRLPRPRPRPVDFPRP | -0.452 |
